Measured values published in patent publication US20070202051A1, “Aerosols for sinunasal drug delivery” (Pari GmbH, priority 2006, published 2007).

Columns and labels:
[1] = Aerosol droplet size (mass median diameter, geometric standard deviation) by laser diffraction; format: physicochemical; conditions: aerosol generator of Example 5 (LC Sprint Junior-like + PARI SINUS); Example 9
[2] = Physicochemical properties of the liquid test formulations
[3] = at 25° C.; cited from earlier work

Molecule: DNAse
- mass median diameter of the aerosol [1]: 3.19 µm
- dynamic viscosity of the solution [2]: 0.98 mPa·s
- osmolality of the solution [2]: 285 mOsm/kg
- pH of the solution [2]: 6.5
- surface tension of the solution [2]: 72.1 mN/m

Molecule: OC[C@H]1O[C@@H]2O[C@H]3[C@H](O)[C@@H](O)[C@@H](O[C@H]4[C@H](O)[C@@H](O)[C@@H](O[C@H]5[C@H](O)[C@@H](O)[C@@H](O[C@H]6[C@H](O)[C@@H](O)[C@@H](O[C@H]7[C@H](O)[C@@H](O)[C@@H](O[C@H]1[C@H](O)[C@H]2O)O[C@@H]7CO)O[C@@H]6CO)O[C@@H]5CO)O[C@@H]4CO)O[C@@H]3CO [α-cyclodextrin]
- aqueous solubility [3]: about 145 mg/mL
